Test results reported in US20240279281A1, “Peptide Inhibitors of Interleukin-23 Receptor” (Janssen Pharmaceutica NV, priority 2023, published 2024).
Starred links: 1 amine or outer side, 2 acyl side, 3 side chain; linkers in the order of their positions; H or OH if unused. Positions of bridges follow the written chain, without caps; N, C: chain ends. Non-standard residues stand in square brackets, D forms with d. No end group written: not given here. *: point of attachment. X1 = 3‑(7-(3-acetamidophenyl)-1H-indol-3-yl)‑2‑aminopropanoic acid, CC(=O)Nc1cccc(-c2cccc3c(CC(N[*:1])C(=O)[*:2])c[nH]c23)c1; X3 = 4‑(2-(4-(2-amino-2-carboxyethyl)phenoxy)ethyl)‑4‑methylmorpholin‑4‑ium, C[N+]1(CCOc2ccc(CC(N[*:1])C(=O)[*:2])cc2)CCOCC1; X10 = 2‑amino‑3‑(4-(2-guanidinoethoxy)phenyl)propanoic acid, N=C(N)NCCOc1ccc(CC(N[*:1])C(=O)[*:2])cc1; X11 = 2‑amino‑3‑(2-hydroxyquinolin-6-yl)propanoic acid, O=C(C(Cc1ccc2nc(O[*:3])ccc2c1)N[*:1])[*:2]; X7 = 2‑amino‑3‑(5-methylpyridin-3-yl)propanoic acid, Cc1cncc(CC(N[*:1])C(=O)[*:2])c1; Trp(7-(3-AcNH-Ph)) = CC(=O)Nc1cccc(-c2cccc3c(C[C@H](N)C(=O)O)c[nH]c23)c1; 2Nal(6-OH) = N[C@@H](Cc1ccc2cc(O)ccc2c1)C(=O)O; Trp(7-Me) = Cc1cccc2c(C[C@H](N)C(=O)O)c[nH]c12; dLys(Me3) = C[N+](C)(C)CCCC[C@@H](N)C(=O)O; AEF = NCCOc1ccc(C[C@H](N)C(=O)O)cc1; 3Pal = N[C@@H](Cc1cccnc1)C(=O)O; Pen = CC(C)(S)[C@H](N)C(=O)O; αMeC = C[C@](N)(CS)C(=O)O; Thp = NC1(C(=O)O)CCOCC1; Abu = CC[C@H](N)C(=O)O; Propionyl = CCC(=O)*; Sar = CNCC(=O)O

Molecular target: T1, interleukin-23 receptor (IL-23R), Q5VWK5
T1 chain: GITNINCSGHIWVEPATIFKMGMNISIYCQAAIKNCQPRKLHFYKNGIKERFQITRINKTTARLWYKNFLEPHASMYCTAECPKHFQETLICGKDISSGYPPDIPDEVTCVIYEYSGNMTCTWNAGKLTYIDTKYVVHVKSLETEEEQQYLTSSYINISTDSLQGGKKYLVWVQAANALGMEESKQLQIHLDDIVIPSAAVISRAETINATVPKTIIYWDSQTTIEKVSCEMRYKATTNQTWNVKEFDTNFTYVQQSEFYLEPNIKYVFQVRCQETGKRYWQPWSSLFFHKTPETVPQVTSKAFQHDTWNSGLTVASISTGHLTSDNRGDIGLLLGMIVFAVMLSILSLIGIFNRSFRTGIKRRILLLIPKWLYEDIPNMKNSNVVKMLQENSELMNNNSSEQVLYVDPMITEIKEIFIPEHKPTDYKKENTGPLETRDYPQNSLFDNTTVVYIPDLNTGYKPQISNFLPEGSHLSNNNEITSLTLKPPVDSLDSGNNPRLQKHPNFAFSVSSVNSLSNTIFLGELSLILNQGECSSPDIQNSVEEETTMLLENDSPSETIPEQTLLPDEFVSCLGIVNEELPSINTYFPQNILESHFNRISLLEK
Test: cell-based or functional assay

## R[Pen]NT[Trp(7-Me)]K(Ac)[Pen][AEF][2Nal(6-OH)][Thp]EN[3Pal][Sar] (disulfide 2-7 (inferred); ends not checked) [SEQ ID NO: 94]
  IL23R Reporter Assay IC50: < 10 nM
  PBMC pSTAT3 IC50: < 1 nM

## [dLys(Me3)][Pen]NT[X1]K(Ac)[Pen][5‑(4-(2-amino-2-carboxyethyl)phenoxy)‑N,N,N‑trimethylpentan‑1‑aminium][2‑amino‑3‑(6-hydroxynaphthalen-2-yl)propanoic acid][Thp]EN[X7][Sar] (ends and bridges not checked) [SEQ ID NO: 17]
  IL23R Reporter Assay IC50: < 10 nM
  PBMC pSTAT3 IC50: < 10 pM

## R[Pen]ET[Trp(7-Me)]K(Ac)[Pen][AEF][2Nal(6-OH)][Thp]EN[3Pal][Sar] (disulfide 2-7 (inferred); ends not checked) [SEQ ID NO: 136]
  IL23R Reporter Assay IC50: < 10 nM
  PBMC pSTAT3 IC50: < 10 pM

## [dK](Me3)[Abu]NTWK(Ac)[αMeC][X10][2Nal(6-OH)][Thp]EN[3Pal][Sar] (ends and bridges not checked) [SEQ ID NO: 1]
  IL23R Reporter Assay IC50: < 10 nM

## [Pen]NT[X1]K(Ac)[Pen][AEF][2Nal(6-OH)][Thp]EN[3Pal][Sar] (disulfide 1-6 (inferred); ends not checked) [SEQ ID NO: 132]
  IL23R Reporter Assay IC50: < 10 nM
  PBMC pSTAT3 IC50: < 10 pM

## [Abu]NTWQC[AEF][2Nal(6-OH)][Thp]EN[3Pal][Sar] (ends and bridges not checked) [SEQ ID NO: 98]
  IL23R Reporter Assay IC50: < 10 nM
  PBMC pSTAT3 IC50: < 10 pM

## [dK](Propionyl)[Abu]NTWQC[AEF][2Nal(6-OH)][Thp]CN[3Pal][Sar] (ends and bridges not checked) [SEQ ID NO: 10]
  IL23R Reporter Assay IC50: < 10 nM
  PBMC pSTAT3 IC50: < 10 pM

## [Pen]NT[X1]K(Ac)[Pen][X10][2‑amino‑3‑(6-hydroxynaphthalen-2-yl)propanoic acid][Thp]EN[X7][Sar] (ends and bridges not checked) [SEQ ID NO: 16]
  IL23R Reporter Assay IC50: < 10 nM
  PBMC pSTAT3 IC50: < 10 pM

B1: SEQ ID NO: 92 (peptide)
peptide: R[Pen]NT[Trp(7-Me)]K(Ac)[Pen][2‑amino‑3‑(4-(2-aminoethoxy)phenyl)propanoic acid][2‑amino‑3‑(6-hydroxynaphthalen-2-yl)propanoic acid][Thp]EN[3Pal][Sar]K
modifications: disulfide 2-7 (inferred); not fully specified (residue 15); ends not checked; also: K15: lipidated lysine, lipid not given here
  IL23R Reporter Assay IC50: < 10 nM
  PBMC pSTAT3 IC50: < 0.1 nM

B2: SEQ ID NO: 130 (peptide)
peptide: [Pen]NT[Trp(7-Me)]K[Pen][AEF][2Nal(6-OH)][Thp]K(Ac)N[3Pal][Sar]
modifications: disulfide 1-6 (inferred); ends not checked; also: K5: lipidated lysine, lipid not given here
  IL23R Reporter Assay IC50: > 100 nM
  PBMC pSTAT3 IC50: < 1 nM

## [Pen]NT[Trp(7-(3-AcNH-Ph))]K(Ac)[Pen][X3][2Nal(6-OH)][Thp]EN[3Pal][Sar] (disulfide 1-6 (inferred); ends not checked) [SEQ ID NO: 100]
  IL23R Reporter Assay IC50: < 10 nM
  PBMC pSTAT3 IC50: < 10 pM

B3: SEQ ID NO: 120 (peptide)
peptide: R[Pen]NT[Trp(7-Me)]K[Pen][AEF][2Nal(6-OH)][Thp]EN[3Pal][Sar]
modifications: disulfide 2-7 (inferred); ends not checked; also: K6: lipidated lysine, lipid not given here
  IL23R Reporter Assay IC50: > 100 nM
  PBMC pSTAT3 IC50: < 1 nM

## [Pen]NT[Trp(7-Me)]K(Ac)[Pen][2‑amino‑3‑(4-(2-aminoethoxy)phenyl)propanoic acid][X11][Thp]EN[3Pal][Sar] (disulfide 1-6 (inferred); ends not checked) [SEQ ID NO: 149]
  IL23R Reporter Assay IC50: < 10 nM
  PBMC pSTAT3 IC50: < 0.1 nM

B4: SEQ ID NO: 95 (peptide)
peptide: [Pen]NT[Trp(7-Me)]K(Ac)[Pen][AEF][2Nal(6-OH)][Thp]KN[3Pal][Sar]
modifications: disulfide 1-6 (inferred); not fully specified (residue 10); ends not checked; also: K10: lipidated lysine, lipid not given here
  IL23R Reporter Assay IC50: < 10 nM
  PBMC pSTAT3 IC50: < 0.1 nM

## R[Pen]ET[Trp(7-Me)]K(Ac)[Pen][AEF][2Nal(6-OH)][Thp]EN[3Pal][Sar] (disulfide 2-7 (inferred); ends not checked) [SEQ ID NO: 137]
  IL23R Reporter Assay IC50: < 10 nM
  PBMC pSTAT3 IC50: < 10 pM

B5: SEQ ID NO: 91 (peptide)
peptide: K[Pen]NT[Trp(7-Me)]K(Ac)[Pen][2‑amino‑3‑(4-(2-aminoethoxy)phenyl)propanoic acid][2‑amino‑3‑(6-hydroxynaphthalen-2-yl)propanoic acid][Thp]EN[3Pal][Sar]
modifications: disulfide 2-7 (inferred); not fully specified (residue 1); ends not checked; also: K1: lipidated lysine, lipid not given here
  IL23R Reporter Assay IC50: < 10 nM
  PBMC pSTAT3 IC50: < 0.1 nM

B6: SEQ ID NO: 89 (peptide)
peptide: R[Pen]KT[Trp(7-Me)]K(Ac)[Pen][2‑amino‑3‑(4-(2-aminoethoxy)phenyl)propanoic acid][2‑amino‑3‑(6-hydroxynaphthalen-2-yl)propanoic acid][Thp]EN[3Pal][Sar]
modifications: disulfide 2-7 (inferred); not fully specified (residue 3); ends not checked; also: K3: lipidated lysine, lipid not given here
  IL23R Reporter Assay IC50: < 10 nM
  PBMC pSTAT3 IC50: < 0.1 nM

B7: SEQ ID NO: 90 (peptide)
peptide: K[Pen]NT[Trp(7-Me)]K(Ac)[Pen][2‑amino‑3‑(4-(2-aminoethoxy)phenyl)propanoic acid][2‑amino‑3‑(6-hydroxynaphthalen-2-yl)propanoic acid][Thp]EN[3Pal][Sar]
modifications: disulfide 2-7 (inferred); not fully specified (residue 1); ends not checked; also: K1: lipidated lysine, lipid not given here
  IL23R Reporter Assay IC50: < 10 nM
  PBMC pSTAT3 IC50: < 0.1 nM
